± gives the uncertainty stated by the source.

This data set is described as follows: protein stability index of a GFP-peptide fusion (yeast GPS) (PSI 1-4); higher = more stable; sorted into four equal gates, so the index is relative within each strain. Summed up:
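The protein stability index combines read frequencies across sorting gates, each weighted by its gate number and then summed. To obtain those frequencies, a pooled yeast library of GFP fusions to tiled 17-residue yeast protein peptides, on a plasmid also expressing Cherry, was grown to mid-log phase in leucine-free medium. The cells were sorted into four equal gates by GFP/Cherry ratio before plasmid amplification by PCR and Illumina sequencing.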

As to DTTFSDFKEVEDFLHFI [SRB4], the protein stability index was determined as 2.83 ± 0.06 (doa10∆), 2.09 ± 0.05 (pdr5∆), 2.23 ± 0.064 (san1∆) and 2.56 ± 0.048 (ubr1∆).
Sequence HVKQCQETCDKLRARLV [SMC2] came in with a protein stability index (doa10∆) of 2.2 ± 0.18, a protein stability index (pdr5∆) of 2.74 ± 0.14, a protein stability index (san1∆) of 2.34 ± 0.11 and a protein stability index (ubr1∆) of 2.21 ± 0.06.
Regarding LYGTAIGARSQGAKTYL [PRE5], the protein stability index runs as follows: (doa10∆) 2.88 ± 0.13; (pdr5∆) 3.21 ± 0.079; (san1∆) 3.04 ± 0.078; (ubr1∆) 3.13 ± 0.079.
In the same order, the values of LIASHYGVSFFTIQSFV [BRR2] are 1.92 ± 0.043, 1.89 ± 0.039, 1.48 ± 0.063 and 1.81 ± 0.051.
Consider VRDELRKVEKEKNEKER [UBP6], for which the protein stability index (san1∆) was determined as 3.5 ± 0.13 and the protein stability index (ubr1∆) was 3.78 ± 0.2.
For ERVPKTQLDKLRPRKDS [SMB1], the protein stability index is 3.1 ± 0.051 (doa10∆), 3.07 ± 0.062 (pdr5∆), 3.09 ± 0.032 (san1∆) and 3.17 ± 0.045 (ubr1∆).
In the same order, the values of FQAHEITSFLLSKMENV [NAS6] are 1.79 ± 0.079, 1.53 ± 0.045, 1.66 ± 0.094 and 1.69 ± 0.045.
In the same order, the values of VSEGTRAVTKYSSSTQA [HTB1] are 2.99 ± 0.066, 3.15 ± 0.1, 3.16 ± 0.054 and 3.02 ± 0.071.
On the same counts, the results for LHKEQWQSGLKMYDYEE [RPN11] are 2.47 ± 0.081, 2.8 ± 0.081, 2.28 ± 0.096 and 2.39 ± 0.053.
As to VHMYHKSLALLGYNFDG [SNF5], the protein stability index runs as follows: (doa10∆) 2.26 ± 0.059; (pdr5∆) 1.78 ± 0.046; (san1∆) 2.02 ± 0.08; (ubr1∆) 2.02 ± 0.05.
For ASKLAAYNKKSTISARE [HTB1], the protein stability index was determined as 3.22 ± 0.12 (doa10∆) and 3.21 ± 0.11 (ubr1∆).
On to GAHGYSGFYTFSLLDHH [PRE1], for which the protein stability index by setting is: (doa10∆) 2.94 ± 0.19; (pdr5∆) 2.44 ± 0.16; (san1∆) 2.92 ± 0.098; (ubr1∆) 2.76 ± 0.12.
On the same counts, the results for KNINIGKHSQEQNSSSA [SIR4] are 3 ± 0.072, 3.13 ± 0.082, 3.29 ± 0.1 and 3.25 ± 0.057.
On the same counts, the results for YGGSRCANCVKERIVRA [RPL34B] are 3.36 ± 0.21, 3.38 ± 0.089, 2.87 ± 0.076 and 3.15 ± 0.14.
In the same order, the values of NMLLDPAANESEVANNG [RRP42] are 2.05 ± 0.082, 2.74 ± 0.059, 2.64 ± 0.083 and 2.34 ± 0.042.
LDEIFSGCDSTKPSLRK [ECM29] registered a protein stability index (doa10∆) of 2.57 ± 0.078, a protein stability index (pdr5∆) of 2.55 ± 0.06, a protein stability index (san1∆) of 2.65 ± 0.065 and a protein stability index (ubr1∆) of 2.65 ± 0.038.
In the same order, the values of SLSIEENIPVALCKNRK [POP1] are 2.76 ± 0.07, 2.98 ± 0.1, 2.75 ± 0.18 and 2.95 ± 0.1.
As for RQPVEGRSRDGGLRFGE [RPB2], the protein stability index by setting is: (doa10∆) 2.86 ± 0.29; (san1∆) 2.81 ± 0.17.
With NPSITRLEEESSWQIYS [RRP4], the protein stability index is, setting by setting: (pdr5∆) 3.07 ± 0.21; (ubr1∆) 2.07 ± 0.097.
As for SMMSDGIEHFDIPPPAI [RPO31], the protein stability index (doa10∆) came out at 1.97 ± 0.16, the protein stability index (pdr5∆) worked out at 1.81 ± 0.13, the protein stability index (san1∆) was 1.92 ± 0.17 and the protein stability index (ubr1∆) is 2.06 ± 0.15.
LQIHSRKMTTDDDINWQ [RPT5] registered a protein stability index (doa10∆) of 3.09 ± 0.14, a protein stability index (pdr5∆) of 3.12 ± 0.093, a protein stability index (san1∆) of 2.93 ± 0.12 and a protein stability index (ubr1∆) of 3.06 ± 0.063.
On the same counts, the results for ETELFEPGVLNTGDGSI [ECM29] are 3.25 ± 0.15, 3.2 ± 0.11, 2.92 ± 0.12 and 3.07 ± 0.11.
On to QESFINTMSAWVNMLLI [FAS2], for which the protein stability index came to 2.2 ± 0.077 (doa10∆), 2.12 ± 0.085 (pdr5∆), 2.08 ± 0.1 (san1∆) and 2.37 ± 0.066 (ubr1∆).
Regarding AFFTYDAGVTFNKEQLN [ECM29], the protein stability index is, setting by setting: (doa10∆) 2.07 ± 0.052; (pdr5∆) 3.08 ± 0.1; (san1∆) 2.63 ± 0.083; (ubr1∆) 2.58 ± 0.061.
Consider ELMRIISRNGDTSYKID [SMC1], for which the protein stability index came out at 2.83 ± 0.087 (doa10∆), 3.08 ± 0.063 (pdr5∆), 2.99 ± 0.072 (san1∆) and 2.95 ± 0.058 (ubr1∆).
In the same order, the values of FQHADNSSMRYGYWFDC [AAR2] are 3.06 ± 0.11, 2.77 ± 0.12, 2.15 ± 0.089 and 3.14 ± 0.14.

For the origin of these results see the supplement of paper PMC9732359.
